Where a chain is given by its changes, count along the chain named.
B1: 75110_04D20A (antibody, V domains shown)
VH: QVQLQESGPGLVKPSETLSLTCTVSNGSISDYYWSWIRQPAGKGLEWIGRIYTSGSTNYNPSLKSRITMSVDTSKNQFSLELSSVTAADTAVYYCARELERYYFYGVDVWGQGTTVTVSS
VL: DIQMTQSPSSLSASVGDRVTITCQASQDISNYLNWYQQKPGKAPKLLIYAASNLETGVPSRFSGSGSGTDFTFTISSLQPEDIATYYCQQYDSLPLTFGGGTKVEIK
notes: Tested as non-clonal hybridoma supernatant (AlivaMab Mouse Kappa), detected with anti-mouse Fc and anti-human kappa
B2: 75110_05E05A (antibody, V domains shown)
VH: QVQLQESGPGLVKPSETLSLTCTVSGGSIGSYYWSWIRQPAGKGLEWIGRIYTSGSTNYNPSLKSRVTMSFDTSKNQFSLKLNSVTAADTAVYYCATDGGVGDSLDYWGQGTLVTVSS
VL: DIVMTQTPLSLPVTPGEPASISCRSSQSLLDSDDGNTYLDWYLQKPGQSPQLLIYTLSYRASGVPDRFSGSGSGTDFTLKISRVEAEDVGVYYCMQHIEFPFTFGPGTKVDIK
notes: as for B1
B3: 75110_04H17A (antibody, V domains shown)
VH: QVQLQESGPGLVKPSETLSLTCTVSGGSISTYYWSWIRQSAGKGLEWIGRIYTSERPNYNPSLKSRVTMSVDTSKNQFSLKLNSVSAADTAVYYCARELERPYYYGMDVWGQGTTVTVSS
VL: DVQMTQSPSSLSASVGGRVTITCQASQDISNYLNWYQQKPGKAPKLLIYYASNLETGVPSRFSGSGSGTDFTFTISSLQPEDFATYYCQQYDNLPLTFGGGTKVEIK
notes: as for B1
B4: CD8B311 (antibody, human IgG1, kappa, V domains shown)
VH: QVQLKESGPELVKPGASVKLSCKASGYTFTSYWMHWVKQRPGQGLEWIGMIHPNSGSTNYNEKFKSKATLTVDKSSSTAYMQLSSLTSEDSAVYYCARCGYDGAWFAYWGQGTSVTVSS
VL: DIQMTQTTSSLSASLGDRVTISCSASQGISNCLNWYQQKPDGTVKLLIHYTSSLHSGVPSRFSGGGSGTHYSLTISNLEPEDIATYYCQQYSKVPYTFGSGTKLEIKR
notes: Full-length human IgG1, kappa
B5: CD8B245 (antibody, human IgG1, kappa, V domains shown)
VH: EFQLQQSGGGLVQPGGSLSLSCAAPGFTFTDYYMSWVRQSPGKALEWLALSRNKGNGYTTEYSASVKGRFTISRDNSQSILYLQMNVLRAEDSATYYCARTVTGTLFYYALDYWGQGTTVTVSS
VL: DIQMTQSPASLSASVGETVTITCRASENIYSYLAWYQQKQGKSPQFLVYNAKTLAAGVPSRFSGSGSGTQFSLKINRLQPEDFGTYYCQHHYGTPLTFGDGTRLEIKR
notes: Full-length human IgG1, kappa
B6: CD8B337 (antibody, human IgG1, kappa, V domains shown)
VH: QVTLKESGPGKVQPSQTLSLTCSFSGFSLSTSGMGVSWIRKPSGKGLEWLAHIFWDDDRRYKSSLKSRLTISKDTSSNQVFLMITSVDTADSATYYCARRVGYGDYAYFDVWGAGTTVTVSS
VL: DIQMTQYPASLSVSVGETVTITCRASENIYSDLAWYQQKQGKSPQLLVYAATNLADGVPSRFSGSGSGTQYSLKINSLQSEDFGNYYCQHFWGTPWTFGGGTKLEIKR
notes: Full-length human IgG1, kappa
B7: CD8B186 (antibody, human IgG1, kappa, V domains shown)
VH: QVQLQQSGAELAKPGASVKMSCKASGYIFTSYWMHWVKQRPGQGLEWIGNINPSSGYAVYNQKFKDKATLTADQSSSTAYIQLNSLTSEDSAVYYCARRVFYGDSWFAYWGQGTSVTVSS
VL: DVQMIQSPASLSASVGETVTITCRASGNIHNYLAWYQQKQGKSPQLLVYNAKTLADGVPSRFSGSGSGTQYSLKINSLQPEDFGSYYCQHFWSTTWTFGGGTKLEIKR
notes: Full-length human IgG1, kappa
B8: CD8B192 (antibody, human IgG1, kappa, V domains shown)
VH: QVQLQQSGPVLVKPGASVKMSCKASGYTFTDYYMNWVMQSHGKSLEWIGVINPYNGGTTYNQRFTGKATLTVDKSSSTAYMELNSLTSEDSAVYYCARNYGAMDSWGQGTSVTVSS
VL: B7 VL with V2I, I5T, Y49S, S63G, S93I, T95P, W96P, G100A, K103R
notes: Full-length human IgG1, kappa
B9: CD8B362 (antibody, human IgG1, kappa, V domains shown)
VH: EVKLVESGAELVKPGASVKLSCTASGFNIKDTYMHWVKQRPEQGLEWIGRIDPANGHTKFDPKFQGKATITADTSSNTAYLQLSSLTSEDTAVYYCAIRFAYWGQGTLVTVSA
VL: DIQMTQSPSSLSASLGDRVSLTCRASHEISGYLSWLQQKPDGTFKRLIYAASTLDSGVPKRFSGSRSGSDYSLSISSLESEDFADYYCLQYSSYPYTFGSGTKLEMKR
notes: Full-length human IgG1, kappa
B10: CD8B366 (antibody, human IgG1, kappa, V domains shown)
VH: EVQLQQSGPELVRPGASVKLSCTASGFNIKDDYIHWVKQRPEQGLEWIGRIDPANGNPRYAPKFQDKATLTADTSSNTAYLQLSSLTSEDTAVYYCARDDEGYYYFDVWGAGTSVTVSS
VL: DIKMTQSPSYLAASPGETITINCRASKSISKYLAWYQEKPGKTNKVLIYSGSTLQSGIPSRFSGSGSGTDFTLTISSLEPEDFAIYYCQQHNEYPLTFGDGTRLEIKR
notes: Full-length human IgG1, kappa
B11: CD8B340 (antibody, human IgG1, kappa, V domains shown)
VH: QVQLQQPGAELVKPGASVRLSCKASGYTFTNYWMQWVQQRPGQGLEWIGEIDPSDTFTNYNQNFKDKATLTVDTSSSTAYLQLSSLTSEDSAVYYCARGDWDRDWYFDVWGTGTLVTVSA
VL: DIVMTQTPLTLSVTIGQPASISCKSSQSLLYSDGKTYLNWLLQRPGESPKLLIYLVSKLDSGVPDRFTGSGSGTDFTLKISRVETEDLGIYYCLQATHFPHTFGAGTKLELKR
notes: Full-length human IgG1, kappa
B12: CD8B248 (antibody, human IgG1, kappa, V domains shown)
VH: EVQLQQSGAELARPGASVKMSCKASGYTFTTYTMHWVKQRPGQGLEWIGYINPSSGYTKYNQKFTDKATLTADKSSSTAYMQLSSLTSEDSAVYYCARLWAYWGQGTLVTVSA
VL: DVVMTQTPLSLPVSLGDQASISCRSSQSLVHSSGNTYLHWYLQKPGQSPKLLIYKGSNRFSGVSDRFSGSGSGTDFTLKISRVEAEDLGVYFCSQSTHVPFTFGSGTKLEMKR
notes: Full-length human IgG1, kappa
B13: CD8B254 (antibody, human IgG1, kappa, V domains shown)
VH: EVQLQQSGAELVKPGASVKMSCKTSGYTFSSYWITWVKQRPGQGLEWVGDIYPGSGSTNYNEKFKSKAALTVDTSSSTAFMQLNSLTSEDSAVYYCARESITTRITPFDHWGQGTTLTVSS
VL: B12 VL with M111I
notes: Full-length human IgG1, kappa
B14: CD8B250 (antibody, human IgG1, kappa, V domains shown)
VH: QVQLKESGPGLVAPSQSLSITCTVSGFSLSNYVVHWVRQSPGKGLEWLGVIWTDGSTDYNAAFISRLSISKDNSKSQVFFKMNSLQADDTAIYYCARNNGYFPAFFAYWGQGTLVTVSA
VL: DIVMTQSQKFMSTSVGDRVSVTCKASQNVDTDITWYQQKPGQSPKALIYSASYRYSGVPDRFTGSGSGTDFTLTITNVQSEDLAEYFCQQYNSYPLTFGSGTKLEMKR
notes: Full-length human IgG1, kappa
B15: CD8B324 (antibody, human IgG1, kappa, V domains shown)
VH: QVQLQQPGADLVKPGASVKLSCKASGYTSTSHWIHWVKQRPGQGLEWIGNIYPGSSSTNYNEKFKRMATLTVDTSSSTVYMVLSSLTSDDSAVYYCARHSPGHRDYAMDYWGLGTSVTVSS
VL: DIVMTQSQKFMPTTVGDRVSITCKASQNVGTAVAWYQQKPGQSPKLLIASASNRYTGVPDRFTGSGSGTDFTLTISTMQSEDLADYFCQQYSTYPLTFGAGTKLEMKR
notes: Full-length human IgG1, kappa

Each binder was assayed against T1, human CD4 on cells (SKW3 cells; human PBMCs) (human, UniProt P01730 26-458) (assay: FACS confirmation, supernatant on human PBMCs, anti-mFc 647, CD4+ gate).
T1 construct: whole, on cells; SKW3 CD4 knockout cells served as the negative cell line for the WT vs KO ratios; also called hCD4; SKW3 WT
With B1 the “CD4+ gate RL1 Binding” value was 174000. With B2 the “CD4+ gate RL1 Binding” value was 227000. B3 was tested, and the “CD4+ gate RL1 Binding” value was 302000.

The binders below were run against T1, human CD4 on cells (SKW3 cells; human …) (assay: FACS confirmation, supernatant on SKW3 WT cells, anti-mFc 647 (Bkrd gMFI = 3300)).
B1 showed a gMFI of 21900 gMFI. B2 showed a gMFI of 38800 gMFI. B3 was tested, and the gMFI was 27200 gMFI.

What follows are binders tested against T1, human CD4 on cells (SKW3 cells; human …) (assay: FACS confirmation, supernatant on human PBMCs, anti-mFc 647, percent of viable cells).
For B1, the “CD4+ Percent Bound of Viable” value was 28%. In the case of B2, the “CD4+ Percent Bound of Viable” value is reported as 28%. For B3, the “CD4+ Percent Bound of Viable” value was 30%.

These binders were tested against T1, human CD4 on cells (SKW3 cells; human …) (assay: FACS confirmation, supernatant on SKW3 WT cells, anti-hu Kappa FITC (Bkrd gMFI = 2500)).
B1 showed a gMFI of 6790 gMFI. For B2, the gMFI was 8320 gMFI. In the case of B3, the gMFI is reported as 7430 gMFI.

These binders were tested against T1, human CD4 on cells (SKW3 cells; human …) (assay: FACS primary screen, non-clonal hybridoma supernatant; SKW3 WT vs SKW3 CD4 KO cells, anti-mFc-647).
With B1 the “SKW3 WT vs KO anti-mFc-647” value was 4.5 fold. With B2 the “SKW3 WT vs KO anti-mFc-647” value was 9.4 fold. B3 was tested, and the “SKW3 WT vs KO anti-mFc-647” value was 2.9 fold.

The binders below were run against T1, human CD4 on cells (SKW3 cells; human …) (assay: SKW3 FACS binning; competitor OKT4-A488 added after supernatant (background 2163, max binding 8200)).
B1 was tested, and the “OKT4 A488 signal in binning” value was 7370. For B2, the “OKT4 A488 signal in binning” value was 9100. In the case of B3, the “OKT4 A488 signal in binning” value is reported as 9440.

Each binder was assayed against T1, human CD4 on cells (SKW3 cells; human …) (assay: FACS primary screen, non-clonal hybridoma supernatant; SKW3 WT vs SKW3 CD4 KO cells, anti-hKappa-FITC).
B1 was tested, and the “SKW3 WT vs KO anti-hKappa-FITC” value was 2.3 fold. With B2 the “SKW3 WT vs KO anti-hKappa-FITC” value was 3.2 fold. For B3, the “SKW3 WT vs KO anti-hKappa-FITC” value was 1.6 fold.

These binders were tested against T1, human CD4 on cells (SKW3 cells; human …) (assay: SKW3 FACS binning; competitor RPA-T4-PE-Dazzle 594 added after supernatant (background 783, max binding 15000)).
With B1 the “RPA-T4-PE-Dazzle 594 signal in binning” value was 17100. B2 was tested, and the “RPA-T4-PE-Dazzle 594 signal in binning” value was 16500. For B3, the “RPA-T4-PE-Dazzle 594 signal in binning” value was 16800.

What follows are binders tested against T2, human CD8 on human pan T cells (CD4-negative population) (human, UniProt P01732 22-235; P10966 22-210) (assay: flow cytometry, 20 nM antibody on human pan T cells, A647 anti-human IgG Fc; geomean ratio in CD4-negative population).
T2 construct: whole, on cells; Target is CD8 as it stands on primary human pan T cells
T2 sequence (P01732 22-235, chain 1 of 2): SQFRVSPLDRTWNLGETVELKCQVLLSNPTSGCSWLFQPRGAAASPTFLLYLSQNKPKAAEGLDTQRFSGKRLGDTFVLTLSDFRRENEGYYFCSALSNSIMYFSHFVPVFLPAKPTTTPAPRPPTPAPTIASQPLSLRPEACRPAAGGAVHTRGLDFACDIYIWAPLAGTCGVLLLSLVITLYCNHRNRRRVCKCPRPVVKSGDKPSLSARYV
T2 sequence (P10966 22-210, chain 2 of 2): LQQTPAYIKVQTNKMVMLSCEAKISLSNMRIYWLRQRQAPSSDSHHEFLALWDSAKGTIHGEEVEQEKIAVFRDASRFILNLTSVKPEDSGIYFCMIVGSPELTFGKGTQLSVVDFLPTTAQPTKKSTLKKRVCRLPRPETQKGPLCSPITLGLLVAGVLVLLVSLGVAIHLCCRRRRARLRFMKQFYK
In the case of B4, the “Cell Binding to Human PanT Signal/Background (of CD4 negative population)” value is reported as 1 signal/background. B5 was tested, and the “Cell Binding to Human PanT Signal/Background (of CD4 negative population)” value was 44 signal/background. For B6, the “Cell Binding to Human PanT Signal/Background (of CD4 negative population)” value was 1980 signal/background. B7 was tested, and the “Cell Binding to Human PanT Signal/Background (of CD4 negative population)” value was 36 signal/background. For B8, the “Cell Binding to Human PanT Signal/Background (of CD4 negative population)” value was 22 signal/background. For B9, the “Cell Binding to Human PanT Signal/Background (of CD4 negative population)” value was 4 signal/background. With B10 the “Cell Binding to Human PanT Signal/Background (of CD4 negative population)” value was 318 signal/background. For B11, the “Cell Binding to Human PanT Signal/Background (of CD4 negative population)” value was 8 signal/background. With B12 the “Cell Binding to Human PanT Signal/Background (of CD4 negative population)” value was 20 signal/background. With B13 the “Cell Binding to Human PanT Signal/Background (of CD4 negative population)” value was 23 signal/background. In the case of B14, the “Cell Binding to Human PanT Signal/Background (of CD4 negative population)” value is reported as 61 signal/background. For B15, the “Cell Binding to Human PanT Signal/Background (of CD4 negative population)” value was 1610 signal/background.

The binders below were run against T3, huCD4-HIS (human, UniProt P01730 26-390, limits assumed) (assay: ELISA binning; competitor Ibalizumab, 100 ng/mL huCD4-HIS, anti-HIS HRP detection (background 45, max binding 3000000)).
T3 construct: Named only in the head of the ELISA binning column; not shown: HIS tag
For B1, the “Ibalizumab ELISA binning signal” value was 2.11e+06. For B2, the “Ibalizumab ELISA binning signal” value was 1.64e+06. B3 was tested, and the “Ibalizumab ELISA binning signal” value was 1.89e+06.

What follows are binders tested against T1, human CD4 on cells (SKW3 cells; human …) (assay: SKW3 FACS binning; competitor OKT4a added after supernatant, anti-hu A647 secondary (background 5000, max binding 35000)).
B1 was tested, and the “OKT4a anti-hu A647 signal in binning” value was 29200. In the case of B2, the “OKT4a anti-hu A647 signal in binning” value is reported as 35500. B3 was tested, and the “OKT4a anti-hu A647 signal in binning” value was 34000.

From patent US20220112288A1 (published 2022)
